{
  "source": "the supplement of paper PMC9112550",
  "about": "“Optimization of the antimicrobial peptide Bac7 by deep mutational scanning” (BMC Biology, 2022);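 note: peptides expressed intracellularly from a pBAD plasmid library in pooled LB shake-flask culture, induced with 0.3% L-arabinose, DNA abundance read by NGS, three biological replicates, DESeq2 with apeglm shrinkage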",
  "data": [
    {"system": "Escherichia coli TOP10", "experiment": "shrunken log2 fold change of peptide-encoding DNA abundance (4.5 h post-induction vs induction); higher = less antimicrobial activity (less host growth inhibition)", "settings": "time post-induction: 4.5 h; library: site-saturation at positions 5, 18, 19, 20", "values": [
      {"sequence": "RRIRWRPPRLPRPRPRPYGFPRP", "shrunken log2 fold change": -0.00325},
      {"sequence": "RRIRYRPPRLPRPRPRPKKFPRP", "shrunken log2 fold change": -0.0477},
      {"sequence": "RRIRYRPPRLPRPRPRPSLQPRP", "shrunken log2 fold change": -0.126},
      {"sequence": "RRIRWRPPRLPRPRPRPTKPPRP", "shrunken log2 fold change": 0.184},
      {"sequence": "RRIRDRPPRLPRPRPRPKPYPRP", "shrunken log2 fold change": -0.12},
      {"sequence": "RRIRWRPPRLPRPRPRPQHMPRP", "shrunken log2 fold change": -0.459},
      {"sequence": "RRIRIRPPRLPRPRPRPWWKPRP", "shrunken log2 fold change": -0.102},
      {"sequence": "RRIRLRPPRLPRPRPRPQGFPRP", "shrunken log2 fold change": -0.0528},
      {"sequence": "RRIRGRPPRLPRPRPRPKREPRP", "shrunken log2 fold change": -0.00218},
      {"sequence": "RRIRQRPPRLPRPRPRPIMIPRP", "shrunken log2 fold change": -0.452},
      {"sequence": "RRIRKRPPRLPRPRPRPMNCPRP", "shrunken log2 fold change": -0.014},
      {"sequence": "RRIRNRPPRLPRPRPRPDPYPRP", "shrunken log2 fold change": -0.319},
      {"sequence": "RRIRSRPPRLPRPRPRPPDQPRP", "shrunken log2 fold change": 0.674},
      {"sequence": "RRIRDRPPRLPRPRPRPCTIPRP", "shrunken log2 fold change": -0.23},
      {"sequence": "RRIRHRPPRLPRPRPRPTTAPRP", "shrunken log2 fold change": 0.0968},
      {"sequence": "RRIRSRPPRLPRPRPRPQIIPRP", "shrunken log2 fold change": -0.226},
      {"sequence": "RRIRCRPPRLPRPRPRPELSPRP", "shrunken log2 fold change": 0.52},
      {"sequence": "RRIRCRPPRLPRPRPRPTEHPRP", "shrunken log2 fold change": 0.00581},
      {"sequence": "RRIRQRPPRLPRPRPRPYEKPRP", "shrunken log2 fold change": -0.0946},
      {"sequence": "RRIRLRPPRLPRPRPRPKDHPRP", "shrunken log2 fold change": -0.123},
      {"sequence": "RRIRGRPPRLPRPRPRPAKFPRP", "shrunken log2 fold change": 0.549},
      {"sequence": "RRIRPRPPRLPRPRPRPAQRPRP", "shrunken log2 fold change": 0.104},
      {"sequence": "RRIRYRPPRLPRPRPRPSTVPRP", "shrunken log2 fold change": -0.0902},
      {"sequence": "RRIRQRPPRLPRPRPRPHMRPRP", "shrunken log2 fold change": 0.36},
      {"sequence": "RRIRERPPRLPRPRPRPVTCPRP", "shrunken log2 fold change": -0.204},
      {"sequence": "RRIRQRPPRLPRPRPRPNAWPRP", "shrunken log2 fold change": 0.0879},
      {"sequence": "RRIRRRPPRLPRPRPRPIAGPRP", "shrunken log2 fold change": -0.12},
      {"sequence": "RRIRLRPPRLPRPRPRPDWTPRP", "shrunken log2 fold change": 0.000807},
      {"sequence": "RRIRTRPPRLPRPRPRPGPRPRP", "shrunken log2 fold change": 0.716},
      {"sequence": "RRIRTRPPRLPRPRPRPYKFPRP", "shrunken log2 fold change": 0.00477},
      {"sequence": "RRIRHRPPRLPRPRPRPRRVPRP", "shrunken log2 fold change": 0.36},
      {"sequence": "RRIRKRPPRLPRPRPRPSYWPRP", "shrunken log2 fold change": -0.144},
      {"sequence": "RRIRCRPPRLPRPRPRPAIEPRP", "shrunken log2 fold change": -0.384},
      {"sequence": "RRIRHRPPRLPRPRPRPWQIPRP", "shrunken log2 fold change": -0.453},
      {"sequence": "RRIRKRPPRLPRPRPRPEEGPRP", "shrunken log2 fold change": 0.0325},
      {"sequence": "RRIRIRPPRLPRPRPRPPRKPRP", "shrunken log2 fold change": 0.0691},
      {"sequence": "RRIRYRPPRLPRPRPRPPLGPRP", "shrunken log2 fold change": -0.258},
      {"sequence": "RRIRIRPPRLPRPRPRPVNYPRP", "shrunken log2 fold change": -0.0508},
      {"sequence": "RRIRKRPPRLPRPRPRPHLRPRP", "shrunken log2 fold change": -0.0961},
      {"sequence": "RRIRFRPPRLPRPRPRPWWYPRP", "shrunken log2 fold change": -0.238},
      {"sequence": "RRIRKRPPRLPRPRPRPWNAPRP", "shrunken log2 fold change": 0.0384},
      {"sequence": "RRIRFRPPRLPRPRPRPCWDPRP", "shrunken log2 fold change": -0.0535},
      {"sequence": "RRIRIRPPRLPRPRPRPHKYPRP", "shrunken log2 fold change": -1.08},
      {"sequence": "RRIRPRPPRLPRPRPRPPESPRP", "shrunken log2 fold change": 0.841},
      {"sequence": "RRIRWRPPRLPRPRPRPCGPPRP", "shrunken log2 fold change": 0.183},
      {"sequence": "RRIRLRPPRLPRPRPRPIRWPRP", "shrunken log2 fold change": -0.241},
      {"sequence": "RRIRARPPRLPRPRPRPVYPPRP", "shrunken log2 fold change": 0.0412},
      {"sequence": "RRIRQRPPRLPRPRPRPWRDPRP", "shrunken log2 fold change": 0.19},
      {"sequence": "RRIRSRPPRLPRPRPRPFMPPRP", "shrunken log2 fold change": -0.149},
      {"sequence": "RRIRRRPPRLPRPRPRPNPRPRP", "shrunken log2 fold change": 1.11},
      {"sequence": "RRIRQRPPRLPRPRPRPTSMPRP", "shrunken log2 fold change": -0.049},
      {"sequence": "RRIRPRPPRLPRPRPRPYIMPRP", "shrunken log2 fold change": -0.976},
      {"sequence": "RRIRARPPRLPRPRPRPNFDPRP", "shrunken log2 fold change": 0.281},
      {"sequence": "RRIRGRPPRLPRPRPRPPTRPRP", "shrunken log2 fold change": 1},
      {"sequence": "RRIRFRPPRLPRPRPRPMFCPRP", "shrunken log2 fold change": -0.111},
      {"sequence": "RRIRSRPPRLPRPRPRPSPKPRP", "shrunken log2 fold change": 0.0583},
      {"sequence": "RRIRKRPPRLPRPRPRPRSIPRP", "shrunken log2 fold change": 0.176},
      {"sequence": "RRIRTRPPRLPRPRPRPATCPRP", "shrunken log2 fold change": 2.77},
      {"sequence": "RRIRTRPPRLPRPRPRPYGWPRP", "shrunken log2 fold change": -0.123},
      {"sequence": "RRIRARPPRLPRPRPRPVHCPRP", "shrunken log2 fold change": 0.0301},
      {"sequence": "RRIRYRPPRLPRPRPRPMYPPRP", "shrunken log2 fold change": -0.00192},
      {"sequence": "RRIRARPPRLPRPRPRPSAQPRP", "shrunken log2 fold change": 0.96},
      {"sequence": "RRIRQRPPRLPRPRPRPHRVPRP", "shrunken log2 fold change": -0.00151},
      {"sequence": "RRIRDRPPRLPRPRPRPHDRPRP", "shrunken log2 fold change": -0.00543},
      {"sequence": "RRIRVRPPRLPRPRPRPFKDPRP", "shrunken log2 fold change": -0.166},
      {"sequence": "RRIRVRPPRLPRPRPRPMVHPRP", "shrunken log2 fold change": 0.141},
      {"sequence": "RRIRSRPPRLPRPRPRPRLMPRP", "shrunken log2 fold change": 0.198},
      {"sequence": "RRIRRRPPRLPRPRPRPDAYPRP", "shrunken log2 fold change": 0.249},
      {"sequence": "RRIRFRPPRLPRPRPRPNWQPRP", "shrunken log2 fold change": 0.0965},
      {"sequence": "RRIRHRPPRLPRPRPRPGKYPRP", "shrunken log2 fold change": -0.0822},
      {"sequence": "RRIRGRPPRLPRPRPRPGAYPRP", "shrunken log2 fold change": 0.339},
      {"sequence": "RRIRVRPPRLPRPRPRPTHGPRP", "shrunken log2 fold change": -0.235},
      {"sequence": "RRIRHRPPRLPRPRPRPSRRPRP", "shrunken log2 fold change": -0.105},
      {"sequence": "RRIRRRPPRLPRPRPRPRTGPRP", "shrunken log2 fold change": 0.476},
      {"sequence": "RRIRNRPPRLPRPRPRPDGYPRP", "shrunken log2 fold change": 0.171},
      {"sequence": "RRIRFRPPRLPRPRPRPDKTPRP", "shrunken log2 fold change": -0.0318},
      {"sequence": "RRIRWRPPRLPRPRPRPSQEPRP", "shrunken log2 fold change": 0.0253},
      {"sequence": "RRIRWRPPRLPRPRPRPITYPRP", "shrunken log2 fold change": -0.828},
      {"sequence": "RRIRQRPPRLPRPRPRPNDRPRP", "shrunken log2 fold change": -0.16},
      {"sequence": "RRIRARPPRLPRPRPRPATRPRP", "shrunken log2 fold change": 0.487},
      {"sequence": "RRIRRRPPRLPRPRPRPHQAPRP", "shrunken log2 fold change": -0.019},
      {"sequence": "RRIRRRPPRLPRPRPRPVAGPRP", "shrunken log2 fold change": 0.453},
      {"sequence": "RRIRHRPPRLPRPRPRPAHIPRP", "shrunken log2 fold change": -0.0784},
      {"sequence": "RRIRLRPPRLPRPRPRPRVNPRP", "shrunken log2 fold change": -0.155},
      {"sequence": "RRIRSRPPRLPRPRPRPKSAPRP", "shrunken log2 fold change": 0.403},
      {"sequence": "RRIRQRPPRLPRPRPRPICVPRP", "shrunken log2 fold change": -0.307},
      {"sequence": "RRIRSRPPRLPRPRPRPKMFPRP", "shrunken log2 fold change": -0.00685},
      {"sequence": "RRIRGRPPRLPRPRPRPSTCPRP", "shrunken log2 fold change": 0.18},
      {"sequence": "RRIRHRPPRLPRPRPRPDFGPRP", "shrunken log2 fold change": -0.156},
      {"sequence": "RRIRQRPPRLPRPRPRPVHHPRP", "shrunken log2 fold change": 0.04},
      {"sequence": "RRIRTRPPRLPRPRPRPYISPRP", "shrunken log2 fold change": -0.382},
      {"sequence": "RRIRVRPPRLPRPRPRPPDGPRP", "shrunken log2 fold change": 0.422},
      {"sequence": "RRIRRRPPRLPRPRPRPDHQPRP", "shrunken log2 fold change": -0.18},
      {"sequence": "RRIRIRPPRLPRPRPRPQHVPRP", "shrunken log2 fold change": -0.211},
      {"sequence": "RRIRGRPPRLPRPRPRPPWIPRP", "shrunken log2 fold change": 0.256},
      {"sequence": "RRIRLRPPRLPRPRPRPQFRPRP", "shrunken log2 fold change": -0.244},
      {"sequence": "RRIRCRPPRLPRPRPRPHVYPRP", "shrunken log2 fold change": -0.899},
      {"sequence": "RRIRFRPPRLPRPRPRPHYVPRP", "shrunken log2 fold change": -1.78},
      {"sequence": "RRIRPRPPRLPRPRPRPWVEPRP", "shrunken log2 fold change": 0.17},
      {"sequence": "RRIRARPPRLPRPRPRPKDSPRP", "shrunken log2 fold change": 0.181},
      {"sequence": "RRIRWRPPRLPRPRPRPPWGPRP", "shrunken log2 fold change": 0.483},
      {"sequence": "RRIRHRPPRLPRPRPRPSITPRP", "shrunken log2 fold change": -0.569},
      {"sequence": "RRIRARPPRLPRPRPRPHGWPRP", "shrunken log2 fold change": 0.184},
      {"sequence": "RRIRCRPPRLPRPRPRPTQHPRP", "shrunken log2 fold change": 0.349},
      {"sequence": "RRIRGRPPRLPRPRPRPTSEPRP", "shrunken log2 fold change": 0.339},
      {"sequence": "RRIRTRPPRLPRPRPRPWEMPRP", "shrunken log2 fold change": -0.0783},
      {"sequence": "RRIRCRPPRLPRPRPRPNADPRP", "shrunken log2 fold change": 0.342},
      {"sequence": "RRIRTRPPRLPRPRPRPIYGPRP", "shrunken log2 fold change": -0.0121},
      {"sequence": "RRIRHRPPRLPRPRPRPVKLPRP", "shrunken log2 fold change": -0.438}
    ]}
  ]
}
